# Experimental data from article PMC7162537.
# Molecular target: BRCA1 (UniProt P38398)
# Assay: anti-HA co-IP from nuclear extract, blot
# Settings: reference: wild type FANCJ; sites S990
substance,measurement,value
FANCJ (from UniProt Q9BX63) S990A,binding against the reference,lost
